From patent US20260109747A1 come the findings set out here.

What all share (test): cell-based or functional assay
Experiment [1] addresses cynomolgus monkey IL-2Rα/β/γ (cynomolgus monkey).
Experiment [2] deals with human IL-2Rβ/γ (human) (UniProt P14784).
The target in experiment [3] is human IL-2Rα/β/γ (human) (UniProt P01589).
The target of experiment [4] is T1, mouse IL-2Rβ/γ (mouse) (UniProt P16297).
T1 sequence (looked up) 1: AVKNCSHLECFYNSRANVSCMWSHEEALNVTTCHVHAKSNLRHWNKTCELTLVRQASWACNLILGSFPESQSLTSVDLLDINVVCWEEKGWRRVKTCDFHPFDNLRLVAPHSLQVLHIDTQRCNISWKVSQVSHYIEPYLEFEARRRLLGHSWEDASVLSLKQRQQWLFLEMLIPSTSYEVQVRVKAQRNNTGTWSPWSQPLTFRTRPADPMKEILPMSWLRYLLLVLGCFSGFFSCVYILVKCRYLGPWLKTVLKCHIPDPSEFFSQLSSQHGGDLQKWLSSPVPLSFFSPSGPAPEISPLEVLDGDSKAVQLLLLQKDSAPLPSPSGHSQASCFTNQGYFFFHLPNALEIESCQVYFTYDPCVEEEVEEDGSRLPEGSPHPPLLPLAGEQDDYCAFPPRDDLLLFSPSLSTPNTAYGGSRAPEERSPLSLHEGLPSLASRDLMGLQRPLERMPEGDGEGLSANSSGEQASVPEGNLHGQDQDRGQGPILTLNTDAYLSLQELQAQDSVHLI
T1 sequence (looked up) 2: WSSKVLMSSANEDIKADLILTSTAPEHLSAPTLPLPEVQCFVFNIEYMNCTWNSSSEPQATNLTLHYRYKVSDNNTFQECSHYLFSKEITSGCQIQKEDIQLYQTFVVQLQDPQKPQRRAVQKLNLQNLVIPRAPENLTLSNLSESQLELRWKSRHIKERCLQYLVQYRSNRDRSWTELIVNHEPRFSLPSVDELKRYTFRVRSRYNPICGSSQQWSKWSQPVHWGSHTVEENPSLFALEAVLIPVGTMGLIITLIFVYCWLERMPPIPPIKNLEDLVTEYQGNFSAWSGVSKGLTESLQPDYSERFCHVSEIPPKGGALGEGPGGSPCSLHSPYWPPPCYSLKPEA

his-tagged mammalian expressed control human IL-2, compound 13, sequence (P60568 other isoform, or with tags, fused parts or gaps limits assumed): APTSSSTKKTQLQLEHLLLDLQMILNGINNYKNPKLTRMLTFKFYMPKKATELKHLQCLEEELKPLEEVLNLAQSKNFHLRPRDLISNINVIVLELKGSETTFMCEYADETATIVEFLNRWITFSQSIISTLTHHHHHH
human IL-2Rβ/γ (human), sequence (P14784 27-551, chain 1 of 2): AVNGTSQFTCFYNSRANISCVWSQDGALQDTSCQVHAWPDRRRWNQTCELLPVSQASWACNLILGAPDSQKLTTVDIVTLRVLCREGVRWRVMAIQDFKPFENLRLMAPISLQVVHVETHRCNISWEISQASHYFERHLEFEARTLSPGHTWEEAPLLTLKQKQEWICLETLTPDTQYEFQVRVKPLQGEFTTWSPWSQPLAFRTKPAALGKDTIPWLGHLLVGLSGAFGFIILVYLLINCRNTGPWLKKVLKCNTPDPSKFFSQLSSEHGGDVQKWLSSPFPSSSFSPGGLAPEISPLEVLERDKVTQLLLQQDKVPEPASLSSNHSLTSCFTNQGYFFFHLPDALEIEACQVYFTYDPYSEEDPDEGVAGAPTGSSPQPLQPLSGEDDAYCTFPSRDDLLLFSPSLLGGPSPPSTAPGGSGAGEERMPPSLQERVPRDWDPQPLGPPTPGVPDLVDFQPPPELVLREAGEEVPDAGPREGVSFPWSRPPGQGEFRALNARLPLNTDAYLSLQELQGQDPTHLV
human IL-2Rβ/γ (human), sequence (P31785 23-369, chain 2 of 2, further chain): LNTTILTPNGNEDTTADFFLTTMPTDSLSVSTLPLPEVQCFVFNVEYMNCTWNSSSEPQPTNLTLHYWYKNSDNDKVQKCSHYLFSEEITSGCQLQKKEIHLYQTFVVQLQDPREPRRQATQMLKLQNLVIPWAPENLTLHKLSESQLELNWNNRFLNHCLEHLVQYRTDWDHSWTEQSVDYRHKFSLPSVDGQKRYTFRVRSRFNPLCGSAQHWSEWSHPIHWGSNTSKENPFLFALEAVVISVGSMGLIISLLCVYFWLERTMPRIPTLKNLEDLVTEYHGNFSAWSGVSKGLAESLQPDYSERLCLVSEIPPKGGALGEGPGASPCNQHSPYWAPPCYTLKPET
human IL-2Rα/β/γ (human), sequence (P01589 22-272, chain 1 of 3): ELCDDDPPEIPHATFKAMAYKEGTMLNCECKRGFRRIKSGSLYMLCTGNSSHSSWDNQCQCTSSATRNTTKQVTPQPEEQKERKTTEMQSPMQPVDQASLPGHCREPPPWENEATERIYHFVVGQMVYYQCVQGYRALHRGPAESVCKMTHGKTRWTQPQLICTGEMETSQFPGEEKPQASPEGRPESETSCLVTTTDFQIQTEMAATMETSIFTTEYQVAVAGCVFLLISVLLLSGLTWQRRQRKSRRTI
human IL-2Rα/β/γ (human), sequence (P14784 27-551, chain 2 of 3, further chain): as the sequence (P14784 27-551, chain 1 of 2) above
human IL-2Rα/β/γ (human), sequence (P31785 23-369, chain 3 of 3, further chain): as the sequence (P31785 23-369, chain 2 of 2, further chain) above

Turning to “his-tagged mammalian expressed control human IL-2, compound 13 (from UniProt P60568 21-153) (ligand)”, the pSTAT5 EC50, Treg, cynomolgus monkey whole blood in experiment [1] was determined as 0.09 ng/mL. In experiment [2], this substance came in with a pSTAT5 EC50, CD8, human blood (additional experiments) of 4.94 ng/mL; a pSTAT5 EC50, CD8, human whole blood of 25.7 ng/mL; a pSTAT5 EC50, NK, human blood (additional experiments) of 17.6 ng/mL; a pSTAT5 EC50, NK, human whole blood of 6.01 ng/mL. The substance also registered a pSTAT5 EC50, Treg, human whole blood in experiment [3] of 0.09 ng/mL. In experiment [4], this substance showed a pSTAT5 EC50, CD8, mouse blood of 24000 ng/mL and a pSTAT5 EC50, NK, mouse blood of 9690 ng/mL.
